Test results reported in patent publication US20250236644A1 (University of Washington, published 2025).
Substitutions are numbered along the chain they refer to.

T1: TAMRA-labeled effector peptide cs217B (5(6)-TAMRA label coupled on resin after synthesis)
T1 construct: also called TAMRA-cs217B
T1 peptide: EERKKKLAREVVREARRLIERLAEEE

T2: TAMRA-labeled effector peptide cs074B (5(6)-TAMRA label coupled on resin after synthesis)
T2 construct: Chemically synthesized; also called TAMRA-cs074B
T2 peptide: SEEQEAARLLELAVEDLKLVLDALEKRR

T3: TAMRA-labeled effector peptide cs201B (5(6)-TAMRA label coupled on resin after synthesis)
T3 construct: also called TAMRA-cs201B
T3 peptide: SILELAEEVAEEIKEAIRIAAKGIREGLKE

T4: TAMRA-labeled effector peptide cs221B (5(6)-TAMRA label coupled on resin after synthesis)
T4 construct: also called TAMRA-cs221B
T4 peptide: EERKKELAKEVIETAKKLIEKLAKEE

T5: TAMRA-labeled effector peptide cs094B (5(6)-TAMRA label coupled on resin after synthesis)
T5 construct: also called TAMRA-cs094B
T5 peptide: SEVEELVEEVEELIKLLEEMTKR

T6: TAMRA-labeled effector peptide cs207B (5(6)-TAMRA label coupled on resin after synthesis)
T6 construct: also called TAMRA-cs207B
T6 peptide: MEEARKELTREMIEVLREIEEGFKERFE

T7: TAMRA-labeled effector peptide js007B (5(6)-TAMRA label coupled on resin after synthesis)
T7 construct: also called TAMRA-js007B
T7 peptide: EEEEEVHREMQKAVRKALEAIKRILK

B1: hinge cs217 (designed binder)
chain: MSGEMKEEIRRLAEELEKKTKDEEVKELARKAAELAEKSDNEEVLEVVKEALRAALKSKDEEVRRLLLEAAVLAAAAESSGSPEEKLEVALRAIRLAEKSKDEEVRRLALEAAVLAAESDDEEVLEEVLRALRRAEESKDEEERREELREAVRRAREGSGSHHWGSTHHHHHH
B2: swapped target hinge csw20 (designed binder)
chain: MSGMEEVKELVEKAEELAKEAEELIKKAKKTGNPELLKEALRKLKEAVELAKEAVELDPEHEEAIELLARLAEKLLEVAKLLIELAKKTGNPELLKEALRALKEAREALRLAAEHAPEDAKLLARLAARLAELALLIAKILIELAKKTGNPELLLKALKVLTLAVEAVEAALEADPRLKEAVRVAKELAEVLKELAKLAKELAKKTGNEELKEAAKEAEEVAKRAEELAREAEGSGSHHWGSTHHHHHH
B3: hinge cs201 (designed binder)
chain: MSGDEEVQEAVERAEELREEAEELIKKARKTGDPELLRKALEALKEAVRAVREAIKRNPDNEEAIKTALRLARELRKVAKELIERARKTGDAELLKKALEAARVAVEAVRLAAEYNKENAEKMAELLVELAELAREVADVLIELAEKTGDPELLKKALEVLEEAVEAVRLAIEYDPDHEEAVETAKRLAEELRKVAELLEERAKETGDPELQELAKRAKEVADRARELAKKSNGSGSHHWGSTHHHHHH
notes: also called unlabeled hinge cs201
B4: hinge cs221 (designed binder)
chain: MSGEMKEEIRRLAEELRERTKDEEVRELAREAARLAEESDDEEVKEVVKKALEAALKSKDEEVIRLLLLAAVLAAAAARSGSPEEKLEIAKKALELAMKSKDEEVIRLALLAAVLAARSDDEEVLKKVKEALEKAMESKDVEEIRERLREAVEVARAGSGSHHWGSTHHHHHH
notes: also called original cs221; parent hinge without cysteines
B5: cs221_A73E (designed binder)
chain: B4 chain with A76E
notes: Point mutant of hinge cs221
B6: cs221_A114T (designed binder)
chain: B4 chain with A117T
notes: Point mutant of hinge cs221
B7: variant cs221_lockedY (designed binder)
chain: B4 chain with L69C, L110C
modifications: disulfide bond between the two introduced cysteines (locks the hinge in state Y; oxidized with copper phenanthroline)
notes: also called cs221 locked Y hinge variant
B8: cs221_L66T (designed binder)
chain: B4 chain with L69T
notes: Point mutant of hinge cs221
B9: cs221_V111L_A114T (designed binder)
chain: B4 chain with V114L, A117T
notes: Double mutant of hinge cs221; also called cs221-mut
B10: cs221_V111L (designed binder)
chain: B4 chain with V114L
notes: Point mutant of hinge cs221
B11: hinge cs094 (designed binder)
chain: MSGDEEERLRQEVEKAEKELEKLAKQSTDEEVRKMVREVAKQLRRLAEEAIRQKDDEALRQATEVVKMVQEAVKVAQKTTDQKVILLLLAVALVAIKVAQLAIRSDDTEALRLARIVIRAVQLLVKLVQKTTDPEVRRTALRVAELLAKLAKEAIERNDEEALREASEVVKEVQELVKEAEKSTDEEEIRELLQRAEERIREAQERIREGSGSHHWGSTHHHHHH
B12: hinge cs207 (designed binder)
chain: MSGTEDERRELEKVARKAIEAAREGNTDEVREQLQRALEIARESGSEEAFKLALEVVRRVAEVAARAGNVEAVKEALRVALEIVKEAMELIKDPEAIVRLALEAVRVVAEVAARAGAVEAVKVALRVALEIAKIAGTEEAVRLALEVVKRVSDIAKKAGNEDAVKEAEEVRKKIEEESGGSGSHHWGSTHHHHHH
notes: also called cs207A
B13: FRET(extension) cs221F, unlabeled (designed binder)
chain: MSGEMVEEIEKLAEELAKKTKDCEVKKLAKKAAELAKKSTDEMKKEIVKDALELALRTKDEEVIRLALKAAVLAAESDDEEVKEVVKKALEAALKSKDEEVIRLLLLAAVLAAAAARSGSPEEKLEIAKKALELAMKSKDEEVIRLALLAAVLAARSDDEEVLKIVKKALELAMESKDVEVIRLALEAAVLAARSTDPEKKKCVYEALEKAMESKDEEEIKKELKAAVEKARSTEGSGSHHWGSTHHHHHH
notes: also called unlabeled extended hinge cs221F
B14: hinge js007 (designed binder)
chain: MSGSEEVNERVKQLAEKAKEATDKEEVIEIVKELAELAKQSTDPNLVAEVVRALTEVAKTSTDTELIQEIVKVLLELARRLTDPQLLLEVLKSIAELLKELAEKTGNETAKLAALVAQIAAEVVEMALRAEKTHPGSEIVKLAVELVQKVAEIVLIAAQLMLDKPNSDEVRKVLKEVEKVAREALKALREAKRHPDSQKARDEIKEASQKAEEVKERIERAQEGSGSHHWGSTHHHHHH

Tests used:
[1] = target: T1, TAMRA-labeled effector peptide cs217B; assay: fluorescence polarization titration; signal never reached a plateau, only a lower bound can be estimated
Procedure: (§1) All FP measurements were performed at 25° C. in 96-well plates (Corning 3686) using a Synergy Neo2™ plate reader and a 530/590 nm filter cube. The buffer for all FP measurements was 20 mM Tris-HCl, 100 mM NaCl, 0.05% v/v TWEEN20 at pH 8. Titrations were carried out in 96-well format, with 4 replicates per plate and 24 data points per titration (23 steps of two-fold serial dilution of hinges in the presence of TAMRA-labeled peptide at a constant concentration between 0.1 nM and 1 nM) with a final sample volume of 80 μl per well. Titration plates were incubated overnight at room temperature before measuring to ensure complete equilibration. The polarization signal S (as calculated by the Neo2™ software) was fitted to the equation

[2] = target: T2, TAMRA-labeled effector peptide cs074B; assay: FP titration, 1 nM peptide, hinge varied
Procedure: (§2) FIG. 10. Redesign of hinges to bind other target peptides. An experimentally tested hinge (top, cs201) is redesigned using a one-sided two-state design approach to bind to different target peptides. Hinges csw13 and csw20 are designed to bind to peptides cs221B and cs074B, respectively, while having a backbone conformation that is similar to the parent cs201 that binds cs201B. Left: design models, right: FP titrations using 1 nM peptide (cs201B, cs221B, cs074B, js007B) and varying concentrations of hinge (from top to bottom: cs201, csw13, csw20). csw13 is an example of a successful orthogonal redesign that specifically binds the new target peptide cs221B while not binding the parent target peptide cs201B or the off-target peptides cs074B or js007B. csw20 is a less orthogonal example that binds the new target peptide cs074B most strongly but still binds to the parent-target peptide cs201B and to the off-target peptide cs221B albeit weaker than the new target.
as §1

[3] = target: T3, TAMRA-labeled effector peptide cs201B; assay: FP titration, 1 nM peptide, hinge varied
Procedure: as §2, §1

[4] = target: T4, TAMRA-labeled effector peptide cs221B; assay: FP titration, 1 nM peptide, hinge varied
Procedure: as §2, §1

[5] = target: T3, TAMRA-labeled effector peptide cs201B; assay: fluorescence polarization kinetics; slope of kapp against hinge concentration
Procedure: as §1
(§3) For FP kinetics experiments a 2× peptide solution and 8 different 2× hinge solutions at different concentrations were prepared separately. 40 μl of each hinge solution were mixed with 40 μl peptide solution using a multichannel pipet and the measurement was started immediately after mixing. Polarization signals S at each concentration were fitted individually to the equation

[6] = target: T3, TAMRA-labeled effector peptide cs201B; assay: fluorescence polarization titration; TAMRA-peptide constant, hinge varied
Source text: (§4) We used our hinge design approach to generate hinge-peptide pairs that span a wide structural space (FIGS. 1D, 2A, 6, 7). We experimentally tested multiple rounds of designs, using both DHRs (21) and helical junctions (22) as input scaffolds, and improving individual steps of the design pipeline between iterations. Designs for which hinge and GFP-fused peptide were soluble and interacted as judged by size exclusion chromatography (SEC, FIGS. 7-8) were selected for further characterization by fluorescence polarization (FP). […] To circumvent the bottleneck of finding soluble peptide sequences, we also sought to design hinges that bind to a given target peptide. Starting from design cs201, we used a modified version of our design pipeline to redesign the hinge to bind peptides cs074B or cs221B, respectively, which have similar hydrophobic fingerprints as the original target peptide cs201B.
as §1

[7] = target: T4, TAMRA-labeled effector peptide cs221B; assay: fluorescence polarization kinetics; slope of kapp against hinge concentration
Procedure: as §1, §3

[8] = target: T4, TAMRA-labeled effector peptide cs221B; assay: fluorescence polarization titration; TAMRA-peptide constant, hinge varied
Source text: as §4, §1

[9] = target: T4, TAMRA-labeled effector peptide cs221B; assay: fluorescence polarization kinetics
Source text: To test the effect of the conformational pre-equilibrium on effector binding, we introduced disulfide “staples” that lock the hinge in one conformation. Using FP we analyzed peptide binding to stapled versions of hinge cs221 (FIG. 5A,B). […] Using the pre-equilibrium model described above, the observed association rates provide an estimate of the fraction of hinge that is in state Y in absence of the peptide: a 200-fold higher observed on rate for the locked Y variant indicates a 200-fold higher fraction of hinge in state Y compared to the original hinge. Assuming that the locked Y variant is 100% in state Y and assuming that the microscopic rate constant k₂ is identical for the locked Y hinge and state Y of the original hinge, this would indicate that the original hinge is 99.5% in state X and 0.5% in state Y at equilibrium.
as §3

[10] = target: T5, TAMRA-labeled effector peptide cs094B; assay: fluorescence polarization kinetics; slope of kapp against hinge concentration
Procedure: as §1, §3

[11] = target: T5, TAMRA-labeled effector peptide cs094B; assay: fluorescence polarization titration; TAMRA-peptide constant, hinge varied
Source text: as §4, §1

[12] = target: T6, TAMRA-labeled effector peptide cs207B; assay: as above
Source text: as §4, §1

[13] = target: T4, TAMRA-labeled effector peptide cs221B; assay: fluorescence polarization titration; 1 nM TAMRA-peptide, unlabeled hinge varied
Procedure: as §1

[14] = target: T7, TAMRA-labeled effector peptide js007B; assay: fluorescence polarization kinetics; slope of kapp against hinge concentration
Procedure: as §1, §3

[15] = target: T7, TAMRA-labeled effector peptide js007B; assay: fluorescence polarization titration; TAMRA-peptide constant, hinge varied
Source text: as §4, §1

| Binder | kon [7] [M⁻¹ s⁻¹] | Kd [8] [nM] | further results |
| --- | --- | --- | --- |
| B1 | – | – | Kd [1]: 20000 nM |
| B2 | – | – | binding result [2]: binds; binding result [3]: binds; binding result [4]: binds |
| B3 | – | – | kon [5]: 6700 M⁻¹ s⁻¹; Kd [6]: 22 nM |
| B4 | 3400 | 2 | – |
| B5 | 1900 | 4.9 | – |
| B6 | 27700 | 0.2 | – |
| B7 | 790000 | 12 | fold higher association rate than the original hinge cs221 [9]: 200 fold |
| B8 | 2700 | 38.3 | – |
| B9 | 76200 | 0.1 | fold higher on rate than the original cs221 [9]: 22 fold |
| B10 | 24300 | 0.3 | – |
| B11 | – | – | kon [10]: 9400 M⁻¹ s⁻¹; Kd [11]: 830 nM |
| B12 | – | – | Kd [12]: 820 nM |
| B13 | – | – | Kd [13]: 23 nM |
| B14 | – | – | kon [14]: 78000 M⁻¹ s⁻¹; Kd [15]: 5.7 nM |
